Experimental data as given in patent publication US20240254227A1 (Alector, published 2024).

T1: human CD300LB on primary human monocytes (human, UniProt A8K4G0 18-201)
T1 construct: Endogenous protein on primary cells; that the target is CD300LB is inferred from the antibodies being anti-CD300LB antibodies; also called Monocyte donor 1281; Monocyte donor 1282
T1 sequence: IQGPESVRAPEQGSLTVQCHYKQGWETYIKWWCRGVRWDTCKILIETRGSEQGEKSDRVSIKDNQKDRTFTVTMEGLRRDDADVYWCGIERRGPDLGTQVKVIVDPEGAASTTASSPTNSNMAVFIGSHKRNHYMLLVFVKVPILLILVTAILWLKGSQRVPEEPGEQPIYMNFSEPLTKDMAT

T2: human CD300LB on primary human macrophages (human, UniProt A8K4G0 18-201)
T2 sequence: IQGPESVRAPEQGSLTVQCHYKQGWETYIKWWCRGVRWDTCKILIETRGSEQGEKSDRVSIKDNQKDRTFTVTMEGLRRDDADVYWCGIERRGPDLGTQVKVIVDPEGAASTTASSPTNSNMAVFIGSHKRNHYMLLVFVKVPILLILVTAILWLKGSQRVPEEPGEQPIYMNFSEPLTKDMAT

T3: human CD300C-Fc (human)
T3 construct: hIgG1-Fc fusion; the entry is the whole fusion chain
T3 chain: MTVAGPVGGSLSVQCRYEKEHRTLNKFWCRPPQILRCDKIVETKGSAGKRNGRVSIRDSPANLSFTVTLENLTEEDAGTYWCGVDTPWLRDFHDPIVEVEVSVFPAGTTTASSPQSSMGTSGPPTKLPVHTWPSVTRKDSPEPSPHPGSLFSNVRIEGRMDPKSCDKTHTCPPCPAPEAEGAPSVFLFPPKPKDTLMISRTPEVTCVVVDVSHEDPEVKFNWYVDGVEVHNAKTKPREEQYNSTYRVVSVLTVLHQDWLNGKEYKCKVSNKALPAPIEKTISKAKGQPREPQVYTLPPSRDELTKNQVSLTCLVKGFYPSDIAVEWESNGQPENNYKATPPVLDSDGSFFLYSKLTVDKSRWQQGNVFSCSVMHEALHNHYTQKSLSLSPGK


Legend:
[1] = target: T1, human CD300LB on primary human monocytes; assay: flow cytometry, primary human monocytes donor 1281, 10 ug/mL antibody, isotype control subtracted
Description: (§1) Human monocytes from various donors were isolated from whole blood using RosetteSep Human Monocyte Enrichment Cocktail (Stemcell technologies) and Ficoll centrifugation per manufacturer protocols. After lysing red blood cells with ACK lysing buffer, monocytes were resuspended in complete media (RPMI, 10% FBS, Pen/Strep, L-glutamine, HEPES, non-essential amino acid, Sodium pyruvate). To obtain macrophages from these isolated monocytes, 100 ng/ml human M-CSF and 8% v/v human serum were added to the cells for 5-7 days. Cells were counted on the day of the experiment and plated at 100,000 cells per well in a round-bottom 96 well plate. Cells were incubated with TruStain Fc block and 10 μg/mL antibody for 1 hour on ice before washing with 250 μL ice cold PBS twice. Cells were then incubated with the appropriate APC-conjugated secondary antibodies for 20 minutes in the dark on ice. Finally, cells were washed twice with ice cold FACS buffer and then resuspended in 100 μL FACS buffer containing 1% propidium iodide. Samples were immediately analyzed using a BD FACSCanto flow cytometer. The gMFI was calculated using FlowJo software minus the gMFI of the appropriate isotype control.

[2] = target: T4, huCD300LB-DAP12 fusion constitutively expressed on 293 Freestyle (Freestyle HEK) cells (human); assay: flow cytometry, geometric mean (APC-A), FreeStyle HEK cells expressing huCD300LB
T4 construct: also called Human CD300LB-DAP12 chimera
Description: Other members of the human CD300 family share sequence homology with human CD300LB. Thus, counter screens against binding of the anti-CD300LB antibodies to huCD300A, huCD300C, huCD300LD, huCD300E, huCD300LF, and huCD300G by stable overexpression in Freestyle HEK cells (generation of which is described above) were performed as follows. Cells were counted and labeled with 200 nM CFSE, 500 nM VioBlue, or a combination of the two to discriminate between CD300LB, Parental cells, and the other CD300 family members. Cells were washed thoroughly with PBS containing 2% fetal bovine serum then resuspended at a total of 240,000 cells per well. Hybridoma supernatants (100 L) or purified antibodies at various concentrations were added and incubated for one hour before the cells were washed twice again and stained with an APC-labeled anti-human or anti-mouse secondary antibody. Cells were then analyzed using a BD FACSCanto II. Anti-CD300LB antibodies were analyzed for specific binding to human CD300LB by FlowJo software by gating on live cells, then the APC geometric mean fluorescence intensity (gMFI) calculated for each labeled population. The results are shown in […]

[3] = target: T2, human CD300LB on primary human …; assay: flow cytometry, primary human macrophages donor 1278, 10 ug/mL antibody, isotype control subtracted
Description: as §1

[4] = target: T1, human CD300LB on primary human monocytes; assay: flow cytometry, primary human monocytes donor 1283, 10 ug/mL antibody, isotype control subtracted
Description: as §1

human CD300C-Fc = target: T3, human CD300C-Fc; assay: SPR (Carterra LSA), antibody immobilised, Fc fusion at 300 or 600 nM
Description: Binding of mouse anti-CD300LB IgG1 antibodies of the present disclosure to human and murine CD300 orthologs were evaluated by surface plasmon resonance (SPR) using a Carterra LSA instrument (Carterra, Salt Lake City, UT). […] A HC200M sensor chip (Carterra) was activated using the single channel flow cell with a 7-minute injection of a 1:1:1 mixture of 100 mM MES pH 5.5, 100 mM sulfo-NHS, 400 mM EDC (all reconstituted in MES pH 5.5; 100 μL of each mixed in vial immediately before running assay). After switching to the multi-channel array flow cell, the antibodies were injected over the activated chip in a 96-spot array for 10 minutes. The remaining unconjugated active groups on the chip were then blocked by injecting 1M Ethanolamine pH 8.5 (Carterra) for 7 minutes using the single channel flow cell. After priming with running buffer (HBS-TE, Carterra) with 0.5 mg/ml BSA (Sigma), the immobilized anti-CD300LB antibodies were tested for their ability to bind human and mouse recombinant CD300LB extracellular domains. Human CD300 family members and mouse CD300A were hIgG1-Fc fusions, while mouse CD300LB, mouse CD300C, mouse CD300D, and mouse CD300E were mouse IgG2a-Fc fusions (R&D Systems). Binding was assessed by injecting each analyte over the entire antibody array using the single channel flow cell. CD300 analytes were diluted to 300 nM or 600 nM in running buffer and injected in series without regeneration. Two or three buffer blanks were run between each mouse or human ortholog, respectively. Data were processed and analyzed using NextGenKIT high-throughput kinetics analysis software (Carterra).
Results of anti-CD300LB antibody binding to human CD300 family members is provided below in Table 7.

gMFI [1]	EC50 (read off the curve) [2]	gMFI [3]	gMFI [4]	SPR binding (control subtracted) (human CD300C-Fc)	binding result [2]	Binder
43 gMFI	~20 nM	211000 gMFI	47 gMFI			anti-CD300LB antibody CD-07 (antibody, V domains shown) VH: QVQLVQSGAEVKKPGASVKVSCKASGYTFTNYRMHWVRQAPGQGLEWMGWINPNSGGTIYAQKFQGRVTMTRDTSTSTVYMELSSLRSEDTAVYYCARDLDYWGQGTLVTVSS VL: DIQMTQSPSSLSASVGDRVTITCQASQDISNYLNWYQQKPGKAPKLLIYGASSLQSGVPSRFSGSGSGTDFTLTISSLQPEDFATYYCQQSYSTPWTFGPGTKVEIK
1650 gMFI		169000 gMFI	2470 gMFI			anti-CD300LB antibody CD-06 (antibody, V domains shown) VH: QVQLVQSGAEVKKPGASVKVSCKASGYTFTTYAVHWVRQAPGQGLEWMGIVNPNSGGTNYAQKFQGRVTMTRDTSTSTVYMELSSLRSEDTAVYYCARDIVPMNNFYNYYYGMDVWGQGTTVTVSS VL: DIQMTQSPSSLSASVGDRVTITCRASQSISSYLNWYQQKPGKAPKLLIYATSTLQSGVPSRFSGSGSGTDFTLTISSLQPEDFATYYCQQSYRIPYTFGQGTKVEIK

Second part, the binder before the results:

Binder	gMFI [1]	EC50 (read off the curve) [2]	gMFI [3]	gMFI [4]	SPR binding (control subtracted) (human CD300C-Fc)	binding result [2]
anti-CD300LB antibody CD-05 (antibody, V domains shown) VH: QVQLVQSGAEVKKPGASVKVSCKASGYTFSRYYINWVRQAPGQGLEWMGWINPNSGGTNYAQKFQGRVTMTRDTSTSTVYMELSSLRSEDTAVYYCTTDQLRFGKTGPYYGMDVWGQGTTVTVSS VL: DIQMTQSPSSLSASVGDRVTITCRASQNIGTYLNWYQQKPGKAPKLLIYAASSLQSGVPSRFSGSGSGTDFTLTISSLQPEDFATYYCQQSYSDTLTFGGGTKVEIK	736 gMFI		175000 gMFI	935 gMFI	0.06	
anti-CD300LB antibody CD-03 (antibody, V domains shown) VH: EVQLQQSGPELVKPGASVKISCKASGYTFTDYYINWVRQSHGKSLECIGDINPNNGGTNYNQKFKGKATLTVDRSSNTAYMEFRSLTFDDSALYYCAAEGAYWGQGTLVTVSA VL: not shown					0.165	
anti-CD300LB antibody CD-02 (antibody, V domains shown) VH: QVQLQQPGAELVRPGSSVKLSCQASGYTFTNYWMHWVRQRPIQGLEWIGNIDPSDSETHYNQKFKDRATLTVDKSSSTAYMQLSSLTSEDSAVYYCARSGVYDDEGGDYWGQGTTLTVSS VL: ENVLTQSPAIMSASPGEKVTMTCSASSSVSYIHWYQQKSSTSPKLWIYDTSKLASGVPGRFSGSGSGNSYSLTISSMETEDVATYYCFQGSGYPLTFGAGTKLELK					0.425	no binding
anti-CD300LB antibody CD-01 (antibody, V domains shown) VH: RVQLQQSGAELVRPGASVTLSCKASGFTFTDFEMHWVKKTPVHGLEWIGAIDPESGNTAYNQKFRGKATLTADKSSSTAYMELRYLTSEDSAVYYCTPLISGADYWGQGTTLTVSS VL: DVVMTQSPLSLPVSLGDQASISCRSSQSLVHSDGNTYLYWYLQKPGQSPKLLIYKVSNRFSGVPDRFSGSGSGTDFTFKISRVGAEDLGVYFCSQSTHVPWTFGGGTKLEII					0.805	no binding
